Data on 94 variants can be found in the supplement of paper PMC10567573.

B1: MCOLN1 (parent)
chain: EEEDLRRRLKYFFMSPCDKFRAKG
B2: SEC22B (parent)
chain: AKQLFRKLNEQSPTRCTLEAGAMT
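Note: lentivirally expressed fusions sorted by FACS into six bins by GFP to DsRed ratio, PSI derived from sequencing read proportions per bin multiplied by bin number.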

Variants of B1 are the subject of one series. The experiment in a line: protein stability index of a GFP-peptide fusion (GPS, HEK-293T) (PSI 1-6); higher = more stable. The following applies: c terminus: a fixed tail appended.
Turning to EEMDLRRRLKYFFMSPCDKFRAKG [E3M], the protein stability index is 1.15.

Consider EEEDLSRRLKYFFMSPCDKFRAKG [R6S], for which the protein stability index was determined as 3.6. Still for that read-out and setting: with EEEDLLRRLKYFFMSPCDKFRAKG [R6L] the figure was 1.76.

For EEEDLHRRLKYFFMSPCDKFRAKG [R6H], the protein stability index is 1.97. As to EEEDLRRRLKYFFMSPCPKFRAKG [D18P], the protein stability index was 1.73. As to EEEDLRRRLKYFFMSPVDKFRAKG [C17V], the protein stability index is 2.53. With EEEDLRRRLKYFFMSVCDKFRAKG [P16V], the protein stability index is 2.12.

With EEEDLRRRLKYFLMSPCDKFRAKG [F13L], the protein stability index was 3.2. As to EEEDLRRRLKYFGMSPCDKFRAKG [F13G], the protein stability index was found to be 3.78. The same measure, in the same setting: then EEEDLRRRLKYFFMSPCDKFGAKG [R21G], with 3.01.

As to EEEDLRRRFKYFFMSPCDKFRAKG [L9F], the protein stability index came to 2.96. Consider EEEDLRRREKYFFMSPCDKFRAKG [L9E], for which the protein stability index was 4.4. Still for that read-out and setting: then EEEDLRRRNKYFFMSPCDKFRAKG [L9N], with 3.5. Same read-out and setting: with EEEDLRRRLWYFFMSPCDKFRAKG [K10W] the figure was 2.1.

Consider EEEDLRRRLAYFFMSPCDKFRAKG [K10A], for which the protein stability index was 2.15. For the variant EEEMLRRRLKYFFMSPCDKFRAKG [D4M], the protein stability index turned out to be 1.48. Turning to EEETLRRRLKYFFMSPCDKFRAKG [D4T], the protein stability index came to 2.49. For EEEDLRRRLKYFFMSPCDKFRAKN [G24N], the protein stability index stood at 2.35. In the case of EEEDLRRRLKYFFTSPCDKFRAKG [M14T], the protein stability index worked out at 2.79.

On to EEEDLRRRLKYYFMSPCDKFRAKG [F12Y], for which the protein stability index was determined as 2.69. Consider EEEDLRRRLKYKFMSPCDKFRAKG [F12K], for which the protein stability index amounted to 2.98. Regarding EEEDLRRRLKYQFMSPCDKFRAKG [F12Q], the protein stability index amounted to 3.53. As to EEEDLRRRLKYFFMSPCDRFRAKG [K19R], the protein stability index was 1.55. Same read-out and setting: with EEEDLRRRLKYFFMSPCDSFRAKG [K19S] the figure was 2.4; with EEEDLRRRLKYFFMSPCDKFRDKG [A22D], 2.64.

In a further series the parent is B2. Described as above. The following applies: c terminus: a fixed tail appended.
Consider AKQLFRKLNEQSPTRCTLEAGEMT [A22E], for which the protein stability index worked out at 2.53. Turning to AKQLFRKLNEQSPTRCTLEAGVMT [A22V], the protein stability index came out at 1.89. Take AKQLFRKLNEQSPTRCTLEAGRMT [A22R]: the protein stability index came to 2.14. As for AKQLFRKLNEQSPTRCTLEAGGMT [A22G], the protein stability index was 2.35.

Consider AKQLFRKLNEQSPTRCTLEAGPMT [A22P], for which the protein stability index was found to be 2.25. For AKQLFRKLNEQSPTRCTLEAGLMT [A22L], the protein stability index was 1.58. As to AKQLFRKLNEQSPTRCTLEAGSMT [A22S], the protein stability index worked out at 2.27. For the variant AKQLFRKLNEQSPTRCTLEAGIMT [A22I], the protein stability index was found to be 2.17. Regarding AKQLFRKLNEQSPTRCTLEAGWMT [A22W], the protein stability index came out at 3.6. Regarding AKQLFRKLNEQSPTRCTLEAGKMT [A22K], the protein stability index worked out at 1.79. As for AKQLFRKLNEQSPTRCTLEAGDMT [A22D], the protein stability index amounted to 2.33. Same read-out and setting: then AKQLFRKLNEQSPTRCTLEAGCMT [A22C], with 2.07. With AKQLFRKLNEQSPTRCTLEAGHMT [A22H], the protein stability index worked out at 1.82.

Consider AKQLFRKLNEQSPTRCTLEAGNMT [A22N], for which the protein stability index turned out to be 2.8.

For AKQLFRKLNEQSPTRCTLEAGYMT [A22Y], the protein stability index came out at 2.41. In the case of AKQLFRKLNEQSPTRCTLEAGQMT [A22Q], the protein stability index turned out to be 1.88. On to AKQLFRKLNEQSPTRCTLEAGFMT [A22F], for which the protein stability index is 1.49. In the case of AKQLFRKLNEQSPTRCTLEAGMMT [A22M], the protein stability index came out at 2.07. AKQLFRKLNEQSPTRCTLEAGTMT [A22T]: the protein stability index worked out at 1.84.

In the case of AKQLFRKLNEQSPTRCTLEAGADT [M23D], the protein stability index worked out at 2.77.

As for AKQLFRKLNEQSPTRCTLEAGACT [M23C], the protein stability index came to 2.18.

Regarding AKQLFRKLNEQSPTRCTLEAGAET [M23E], the protein stability index was determined as 2.59.

As to AKQLFRKLNEQSPTRCTLEAGANT [M23N], the protein stability index is 2.61.

AKQLFRKLNEQSPTRCTLEAGALT [M23L]: the protein stability index amounted to 2.47. Consider AKQLFRKLNEQSPTRCTLEAGAGT [M23G], for which the protein stability index is 2.85. Regarding AKQLFRKLNEQSPTRCTLEAGAWT [M23W], the protein stability index worked out at 2.19. On to AKQLFRKLNEQSPTRCTLEAGAAT [M23A], for which the protein stability index turned out to be 2.09.

For the variant AKQLFRKLNEQSPTRCTLEAGAKT [M23K], the protein stability index amounted to 2.45. On to AKQLFRKLNEQSPTRCTLEAGAVT [M23V], for which the protein stability index was found to be 1.81. Regarding AKQLFRKLNEQSPTRCTLEAGAST [M23S], the protein stability index came to 2.7. Take AKQLFRKLNEQSPTRCTLEAGAPT [M23P]: the protein stability index is 2.7.

Consider AKQLFRKLNEQSPTRCTLEAGAYT [M23Y], for which the protein stability index came to 2.37. Turning to AKQLFRKLNEQSPTRCTLEAGAIT [M23I], the protein stability index worked out at 2.04. Same read-out and setting: then AKQLFRKLNEQSPTRCTLEAGAQT [M23Q], with 2.81.

As to AKQLFRKLNEQSPTRCTLEAGAFT [M23F], the protein stability index was determined as 1.72. For AKQLFRKLNEQSPTRCTLEAGATT [M23T], the protein stability index worked out at 2.22. AKQLFRKLNEQSPTRCTLEAGAHT [M23H]: the protein stability index is 2.25.

For the variant AKQLFRKLNEQSPTRCTLEAGART [M23R], the protein stability index is 2.26.

Consider AKQLFRKLNEQSPTRCTNEAGAMT [L18N], for which the protein stability index came out at 3.17. In the case of AKQLFRKLNEQSPTRCTCEAGAMT [L18C], the protein stability index was 2.66.

Take AKQLFRKLNEQSPTRCTFEAGAMT [L18F]: the protein stability index came to 2.09. For the variant AKQLFRKLNEQSPTRCTGEAGAMT [L18G], the protein stability index turned out to be 2.48.

As to AKQLFRKLNEQSPTRCTTEAGAMT [L18T], the protein stability index was found to be 2.84.

On to AKQLFRKLNEQSPTRCTMEAGAMT [L18M], for which the protein stability index turned out to be 2.16. Still for that read-out and setting: then AKQLFRKLNEQSPTRCTQEAGAMT [L18Q], with 2.71. For AKQLFRKLNEQSPTRCTYEAGAMT [L18Y], the protein stability index worked out at 1.89. In the case of AKQLFRKLNEQSPTRCTVEAGAMT [L18V], the protein stability index is 2.78.

As to AKQLFRKLNEQSPTRCTIEAGAMT [L18I], the protein stability index was 2.35.

For AKQLFRKLNEQSPTRCTAEAGAMT [L18A], the protein stability index is 3.25. As for AKQLFRKLNEQSPTRCTDEAGAMT [L18D], the protein stability index amounted to 3.92. As to AKQLFRKLNEQSPTRCTHEAGAMT [L18H], the protein stability index is 2.64. For the variant AKQLFRKLNEQSPTRCTREAGAMT [L18R], the protein stability index is 2.46. Same read-out and setting: with AKQLFRKLNEQSPTRCTPEAGAMT [L18P] the figure was 3.24. AKQLFRKLNEQSPTRCTEEAGAMT [L18E]: the protein stability index was found to be 3.47. Take AKQLFRKLNEQSPTRCTWEAGAMT [L18W]: the protein stability index came out at 1.94. As to AKQLFRKLNEQSPTRCTKEAGAMT [L18K], the protein stability index was found to be 2.7. As for AKQLFRKLNEQSPTRCTSEAGAMT [L18S], the protein stability index came out at 3.26. Take AKQLFRKLNEQSPTRCTLEAGAMM [T24M]: the protein stability index amounted to 2.59.

Take AKQLFRKLNEQSPTRCTLEAGAMF [T24F]: the protein stability index worked out at 1.99.

For AKQLFRKLNEQSPTRCTLEAGAMQ [T24Q], the protein stability index worked out at 2.39. In the case of AKQLFRKLNEQSPTRCTLEAGAMR [T24R], the protein stability index came to 2.14. The same measure, in the same setting: with AKQLFRKLNEQSPTRCTLEAGAMH [T24H] the figure was 2.06; with AKQLFRKLNEQSPTRCTLEAGAMS [T24S], 2.19.

As to AKQLFRKLNEQSPTRCTLEAGAML [T24L], the protein stability index was 2.13. As to AKQLFRKLNEQSPTRCTLEAGAMK [T24K], the protein stability index is 2.29.

For the variant AKQLFRKLNEQSPTRCTLEAGAMC [T24C], the protein stability index came out at 2.26. With AKQLFRKLNEQSPTRCTLEAGAMI [T24I], the protein stability index worked out at 1.92. AKQLFRKLNEQSPTRCTLEAGAMA [T24A]: the protein stability index worked out at 1.82. On to AKQLFRKLNEQSPTRCTLEAGAMG [T24G], for which the protein stability index was 2.49.
